Assay results from patent US11427805B2, “Methods of producing human foregut endoderm cells expressing PDX1 from human definitive endoderm” (ViaCyte, Inc., priority 2005, dated 2022).

How the values were obtained:
Format in all cases: cell-based, human
hESCs [1] = assay: AFP antibody-labeled cell number by flow cytometry; details: FIGS. 9A-B
Description: As a further evidence of the specificity of the SOX17^hi/AFP^lo/TM^lo/SPARC^lo marker profile as predictive of definitive endoderm, SOX17 and AFP gene expression was quantitatively compared to the relative number of antibody labeled cells.

hESCs [2] = assay: Antibody labeling (immunocytochemistry) of differentiating hESCs for SOX17 and AFP
Description: However, AFP and SOX7 are not expressed in definitive endoderm cells at levels detectable by ICC, and thus, they can be employed as negative markers for bonifide definitive endoderm cells. It was shown that SOX17 antibody labels populations of cells that exist as discrete groupings of cells or are intermingled with AFP positive cells. […] Similarly, since parietal endoderm has been reported to express SOX17, antibody co-labeling with SOX17 together with the parietal markers SPARC and/or Thrombomodulin (TM) can be used to identify the SOX17^+ cells that are parietal endoderm. As shown in FIGS. 6A-C, Thrombomodulin and SOX17 co-labeled parietal endoderm cells were produced by random differentiation of hES cells.
With the SOX17 antibody and Q-PCR tools described above we have explored a number of procedures capable of efficiently programming hESCs to become SOX17^hi/AFP^lo/SPARC/TM^lo definitive endoderm cells. We applied a variety of differentiation protocols aimed at increasing the number and proliferative capacity of these cells as measured at the population level by Q-PCR for SOX17 gene expression and at the level of individual cells by antibody labeling of SOX17 protein.
To determine the effect of TGFβ factor treatment at the individual cell level, a time course of TGFβ factor addition was examined using SOX17 antibody labeling. […]

definitive endoderm = assay: Dorsal / ventral / PDX1-negative foregut endoderm differentiation from definitive endoderm (marker gene expression); details: first four days of differentiation (FIGS. 51A, 51B)
Description: Definitive endoderm was produced from undifferentiated hESCs using a three or five day protocol in which activin A was provided to the culture medium at a concentration of 100 ng/ml each day. For both dorsal and ventral differentiation, the medium composition for the first five days was as follows: Day 1—RPMI+0% fetal bovine serum (FBS), Day 2—RPMI+0.2% PBS, Day 3—RPMI+2.0% FBS, Day 4—RPMI+2.0% FBS and Day 5—RPMI+2.0% FBS. For the ventral differentiation, definitive endoderm was produced for 3 days in activin A at 100 ng/ml and then exposed to BMP4 at 3 ng/ml and FGF10 at 50 ng/ml. […] For the dorsal differentiation procedure, definitive endoderm was produced for 5 days in activin A at 100 ng/ml and then exposed to retinoic acid (RA) at 2 μM and activin A at 25 ng/ml in CMRL medium containing B27 supplement (1:200).
Four separate conditions were used to treat hESCs that result in varying proportions of differentiation to definitive endoderm. All four conditions utilized RPMI supplemented with 0% FBS on the first day, 0.2% FBS on second day, and 2% FBS on days 3 and 4. The four conditions were as follows: (a) BMP4 at 100 ng/mL with SU5402 at 5 μM; (b) no exogenous growth factors; (c) activin A at 15 ng/mL; and (d) activin A at 100 ng/ml. […] All cultures were then incubated for 2 days with BMP4 at 3 ng/mL, FGF10 at 50 ng/ml and KAAD-cyclopamine at 0.5 μM in a base medium of 2% FBS in RPMI followed by 6 days with BMP4 at 3 ng/mL, FGF10 at 50 ng/ml and KAAD-cyclopamine at 0.5 μM in a base medium composed of CMRL with 1:200 dilution of B27 extract.
Definitive endoderm was produced by exposing undifferentiated hESCs to activin at 100 ng/mL in RPMI base medium supplemented with 0%, 0.2%, and 2% FBS on days 1 through 3, respectively. After 3 days of activin A treatment, the cultures were switched to a base medium composed of RPMI containing 2% FBS and maintained under one of the following conditions: (a) BMP4 at 3 ng/ml with FGF10 at 50 ng/ml and KAAD-cyclopamine at 0.5 μM; (b) FGF10 at 50 ng/ml and KAAD-cyclopamine at 0.5 μM; or (c-e) no exogenous factors. After two days, the base medium was changed to CMRL plus B27 supplement (1:200) and cells were maintained according to conditions (a-c) above. Alternatively, cells were maintained with no exogenous factors in RPMI with B27 supplement (1:200) (condition (d)) or RPMI with 2% FBS (condition (e)). The same factor treatment conditions were maintained for 8 more days of differentiation.
Human embryonic stem cells were differentiated for 7 days via a 2-step protocol to achieve PDX1 cells. The first step comprised 5 days differentiation in activin A (100 ng/ml) to robustly produce DE (D'Amour, K., et al., Nature Biotechnology 23, 1534-1541, (2005)). […]

hESCs [3] = assay: Q-PCR of germ layer marker genes (MIXL1, GATA4, HNF3b, SOX7, SPARC, ZIC1, Brachyury) in differentiating hESCs
Description: We routinely used Q-PCR to measure the gene expression of multiple markers of target and non-target cell types in order to provide a broad profile description of gene expression in cell samples. The markers relevant for the early phases of hESC differentiation (specifically ectoderm, mesoderm, definitive endoderm and extra-embryonic endoderm) and for which validated primer sets are available are provided below in Table 1. […] This is an important fact since the hESCs were often grown on mouse feeder layers. Most typically, triplicate samples were taken for each condition and independently analyzed in duplicate to assess the biological variability associated with each quantitative determination.
To generate PCR template, total RNA was isolated using RNeasy (Qiagen) and quantitated using RiboGreen (Molecular Probes). Reverse transcription from 350-500 ng of total RNA was carried out using the iScript reverse transcriptase kit (BioRad), which contains a mix of oligo-dT and random primers. Each 20 μL reaction was subsequently diluted up to 100 μL total volume and 3 μL was used in each 10 μL Q-PCR reaction containing 400 nM forward and reverse primers and 5 μL 2×SYBR Green master mix (Qiagen). Two step cycling parameters were used employing a 5 second denature at 85-94° C. (specifically selected according to the melting temp of the amplicon for each primer set) followed by a 45 second anneal/extend at 60° C. Fluorescence data was collected during the last 15 seconds of each extension phase. A three point, 10-fold dilution series was used to generate the standard curve for each run and cycle thresholds (Ct's) were converted to quantitative values based on this standard curve. The quantitated values for each sample were normalized to housekeeping gene performance and then average and standard deviations were calculated for triplicate samples. At the conclusion of PCR cycling, a melt curve analysis was performed to ascertain the specificity of the reaction. A single specific product was indicated by a single peak at the Tm appropriate for that PCR amplicon.
Definitive endoderm cells were predicted to express high levels of SOX17 mRNA and low levels of AFP and SOX7 (visceral endoderm), SPARC (parietal endoderm) and Brachyury (mesoderm). In addition, ZIC1 was used here to further rule out induction of early ectoderm. Finally, GATA4 and HNF3b were expressed in both definitive and extra-embryonic endoderm, and thus, correlate with SOX17 expression in definitive endoderm (Table 1).

B1: activin A (protein, UniProt P08476 311-426, looked up)
Inhibin beta A chain: GLECDGKVNICCKKQFFVSFKDIGWNDWIIAPSGYHANYCEGECPSHIAGTSGSSLSFHSTVINHYRMRGHSPFANLKSCCVPTKLRPMSMLYYDDGQNIIKKDIQNMIVEECGCS
modifications: Inhibin beta A chain
hESCs [1]
  decrease in AFP antibody-labeled cell number as measured by flow cytometry: approximately 7 fold
hESCs [2]; FIG. 22
  dose dependence of SOX17+ cell number: dose-dependent increase
hESCs [2]; hESCs treated with activin A vs retinoic acid (FIG. 7B)
  difference in SOX17 antibody-labeled cell number: 10 fold
Definitive endoderm
  definitive endoderm production (CER and SOX17 gene expression): robust definitive endoderm differentiation
hESCs [3]; 100 ng/ml (FIG. 14B)
  mesoderm differentiation (brachyury expression): notable suppression
hESCs [3]; activin A dose series (FIG. 14A)
  effect on neural differentiation (ZIC1 expression): not a dose-dependent effect
hESCs [3]; activin A dose series (FIGS. 12A-C)
  expression of definitive endoderm markers MIXL1, GATA4 and HNF3b: dose-dependent increases
hESCs [3]; activin A dose series (FIGS. 13B-C)
  expression of primitive endoderm (SOX7) and parietal endoderm (SPARC) markers: remain either unchanged or exhibit suppression at some time points
